Experimental data published in patent publication US20110059015A1 (CONSEJO SUPERIOR DE INVESTIGACIONES CIENTIFICAS CSIC, published 2011).
Positions count from the first letter of the chain named. Numbers in names are those of the source.

What was measured:
[1] = biological target: T1, BSA (Bos taurus, UniProt P02769); experiment: ELISA, soluble Fab on BSA coated wells
T1 construct: commercial serum albumin; also called bovine serum albumin

[2] = biological target: gp120 of HIV-1 MN strain (on virus) (HIV-1 (MN), UniProt P05877 32-513); experiment: cell-based or functional assay
[3] = biological target: T1, BSA; experiment: ELISA, soluble Fab of the shuffled HC/LC pair on BSA coated wells
[4] = biological target: T1, BSA; experiment: ELISA, soluble mutant Fab on BSA coated wells
[5] = biological target: T1, BSA; experiment: ELISA, soluble Fab on BSA coated wells; remark: listed apart in the source
[6] = biological target: gp120 of HIV-1 SF-2 strain (on virus) (HIV-1 (SF-2), UniProt P03378 32-509); experiment: cell-based or functional assay
[7] = biological target: gp120 of HIV-1 RF strain (on virus) (HIV-1 (RF), UniProt P04579 32-519); experiment: cell-based or functional assay
[8] = biological target: T1, BSA; experiment: ELISA, soluble mutant Fab on BSA coated wells; remark: listed apart in the source
[9] = biological target: T1, BSA; experiment: ELISA, Fab titration on BSA coated wells

T1 sequence (P02769 25-607 limits assumed): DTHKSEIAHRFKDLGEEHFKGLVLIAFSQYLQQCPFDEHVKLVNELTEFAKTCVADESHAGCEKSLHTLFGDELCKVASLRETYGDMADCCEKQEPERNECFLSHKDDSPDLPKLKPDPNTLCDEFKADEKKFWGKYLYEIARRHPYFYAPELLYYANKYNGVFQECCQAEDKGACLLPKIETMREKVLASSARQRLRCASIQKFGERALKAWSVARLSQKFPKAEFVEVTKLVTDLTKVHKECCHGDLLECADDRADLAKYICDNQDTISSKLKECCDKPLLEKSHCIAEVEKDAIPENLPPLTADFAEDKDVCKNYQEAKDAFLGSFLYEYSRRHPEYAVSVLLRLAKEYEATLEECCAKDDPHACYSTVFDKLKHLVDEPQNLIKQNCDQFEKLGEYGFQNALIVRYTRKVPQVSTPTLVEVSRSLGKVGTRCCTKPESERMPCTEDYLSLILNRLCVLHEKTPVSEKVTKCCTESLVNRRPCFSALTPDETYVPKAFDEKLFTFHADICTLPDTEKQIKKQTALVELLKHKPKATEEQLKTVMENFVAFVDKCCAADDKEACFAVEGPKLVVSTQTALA

B1: Fab S20 (Fab, V domains shown)
VH: LESGGGVVQPGRSLRLSCSASGFSFRDYAMHWVRQAPGKGLEWVAFIWFDGSNERYADSVKGRFTITRDNPKNTLYLQMNSLRVEDTAVYYCVRRGGSILTGFHLDYWGQGTLVTVSS
VL: ELTQSPSSLSASVGDRVTITCRASQGIRDDLGWYQQKPGKAPKRLIYAASNLQSGVPSRFSGGGSGTEFTLTISSLQPEDFATYYCLQHNSYPLTFGGGTKVEIKR
notes: also called IgG Fab S20
binding result [1]: no binding (tested: not given on the sheet) | % neutralisation of HIV-1 MN, NPA in MT-4 cells, at 20 µg/ml Fab [2]: 90%

B2: S20/S8 (Fab, V domains shown)
VH: B1 VH
VL: B1 VL
notes: also called S20 heavy chain paired with S8 light chain
binding result [3]: no binding (tested: not given on the sheet)

B3: Fab S8 HCDR3 mutant Arg95 to Gly (Fab, V domains shown)
VH: B1 VH with V7L, Q9K, R12G, S19A, S24T, R26S, D27S, R95G
VL: B1 VL
binding result [4]: no binding (tested: not given on the sheet)

B4: Fab S8 HCDR3 mutant Arg95 to Asp (Fab, V domains shown)
VH: B1 VH with V7L, Q9K, R12G, S19A, S24T, R26S, D27S, R95D
VL: B1 VL
binding result [4]: no binding (tested: not given on the sheet)

B5: Fab S8 (Fab, V domains shown)
VH: B1 VH with V7L, Q9K, R12G, S19A, S24T, R26S, D27S
VL: B1 VL
notes: also called IgG Fab S8; S8 Fab
binding result [5]: no binding (tested: not given on the sheet) | % neutralisation of HIV-1 MN, NPA in MT-4 cells, at 20 µg/ml Fab [2]: 90% | % neutralisation, IRA in MT-2 cells, at 1 µg/ml Fab S8 [2]: 50% | % neutralisation, IRA in MT-2 cells, at 10 µg/ml Fab S8 [2]: > 90% | % neutralisation, IRA in MT-2 cells, at 1 µg/ml Fab S8 [6]: 50% | % neutralisation, IRA in MT-2 cells, at 10 µg/ml Fab S8 [6]: > 90% | % neutralisation, IRA in MT-2 cells, at 1 µg/ml Fab S8 [7]: 50% | % neutralisation, IRA in MT-2 cells, at 10 µg/ml Fab S8 [7]: > 90%

B6: S2095 P (Fab, V domains shown)
VH: B1 VH with R95P
VL: B1 VL
binding result [8]: no binding (tested: not given on the sheet)

B7: mutant Fab S895K (Fab, V domains shown)
VH: B1 VH with V7L, Q9K, R12G, S19A, S24T, R26S, D27S, R95K
VL: B1 VL
binding result [4]: no binding (tested: not given on the sheet)

B8: Fab S19 (Fab, V domains shown)
VH: B1 VH with S19A, R26S, D27S, Y28H, A29G
VL: B1 VL
notes: also called IgG Fab S19
binding result [9]: no binding (tested: about 10 µg/ml)

B9: mutant Fab S2095K (Fab, V domains shown)
VH: B1 VH with R95K
VL: B1 VL
binding result [8]: no binding (tested: not given on the sheet)
